Source: patent US9376684

Assays:
[1] = target: TFPI1-183-CD4 (UniProt P10646); assay: flow cytometry, DAP.3 transfectants incubated with increasing FXa
[2] = target: TFPI1-276-CD4 (UniProt P10646); assay: as above
[3] = test system: native full-length hirudin (Biopharm)
[4] = test system: synthetic C-terminal hirudin dodecapeptide analog comprising hirudin residues 53-64, with sulfato-Tyr64 (American Diagnostica)
[5] = target: TFPI1-183-CD4 (UniProt P10646)
[6] = target: TFPI1-276-CD4 (UniProt P10646)

For “FXa (from UniProt P00742 41-488) (enzyme)”, the FXa concentration at which significant binding was detected [1] was 0.02 nM and the FXa concentration at which significant binding was detected [2] was 0.02 nM.

With thrombin the “thrombin-dependent catalytic activity (cleavage of chromogenic substrate S-2238)” value [3] was “no chromogenic conversion was observed with thrombin incubated with PPACK-HCl or hirudin as compared to thrombin incubated without inhibitor” and the “thrombin-dependent catalytic activity (cleavage of chromogenic substrate S-2238)” value [4] was “the dodecapeptide did not influence thrombin-dependent catalytic activity as measured by cleavage of S-2238”.

With FXa the “proteolytic activity of FXa (chromogenic substrate S-2765; time required to reach OD405=0.1)” value [5] was “FXa activity was inhibited by expressed TFPI-CD4 in a dose dependent manner with the greatest inhibition noted when low concentrations of FXa (0.16 nM) were added” and the “proteolytic activity of FXa (chromogenic substrate S-2765; time required to reach OD405=0.1)” value [6] was “FXa activity was inhibited by expressed TFPI-CD4 in a dose dependent manner with the greatest inhibition noted when low concentrations of FXa (0.16 nM) were added”.
